Measured values from patent publication US20120058126A1 (Eli Lilly, published 2012).
Each block holds one binder with its values, some of them ahead of it.

Experiments:
[1] = molecular target: T1, VEGFR-3-cFMS chimeric receptor (extracellular domain of human VEGFR-3 fused with the transmembrane and … (human, UniProt P07333 518-972, limits assumed)); test: cell-based or functional assay
T1 sequence: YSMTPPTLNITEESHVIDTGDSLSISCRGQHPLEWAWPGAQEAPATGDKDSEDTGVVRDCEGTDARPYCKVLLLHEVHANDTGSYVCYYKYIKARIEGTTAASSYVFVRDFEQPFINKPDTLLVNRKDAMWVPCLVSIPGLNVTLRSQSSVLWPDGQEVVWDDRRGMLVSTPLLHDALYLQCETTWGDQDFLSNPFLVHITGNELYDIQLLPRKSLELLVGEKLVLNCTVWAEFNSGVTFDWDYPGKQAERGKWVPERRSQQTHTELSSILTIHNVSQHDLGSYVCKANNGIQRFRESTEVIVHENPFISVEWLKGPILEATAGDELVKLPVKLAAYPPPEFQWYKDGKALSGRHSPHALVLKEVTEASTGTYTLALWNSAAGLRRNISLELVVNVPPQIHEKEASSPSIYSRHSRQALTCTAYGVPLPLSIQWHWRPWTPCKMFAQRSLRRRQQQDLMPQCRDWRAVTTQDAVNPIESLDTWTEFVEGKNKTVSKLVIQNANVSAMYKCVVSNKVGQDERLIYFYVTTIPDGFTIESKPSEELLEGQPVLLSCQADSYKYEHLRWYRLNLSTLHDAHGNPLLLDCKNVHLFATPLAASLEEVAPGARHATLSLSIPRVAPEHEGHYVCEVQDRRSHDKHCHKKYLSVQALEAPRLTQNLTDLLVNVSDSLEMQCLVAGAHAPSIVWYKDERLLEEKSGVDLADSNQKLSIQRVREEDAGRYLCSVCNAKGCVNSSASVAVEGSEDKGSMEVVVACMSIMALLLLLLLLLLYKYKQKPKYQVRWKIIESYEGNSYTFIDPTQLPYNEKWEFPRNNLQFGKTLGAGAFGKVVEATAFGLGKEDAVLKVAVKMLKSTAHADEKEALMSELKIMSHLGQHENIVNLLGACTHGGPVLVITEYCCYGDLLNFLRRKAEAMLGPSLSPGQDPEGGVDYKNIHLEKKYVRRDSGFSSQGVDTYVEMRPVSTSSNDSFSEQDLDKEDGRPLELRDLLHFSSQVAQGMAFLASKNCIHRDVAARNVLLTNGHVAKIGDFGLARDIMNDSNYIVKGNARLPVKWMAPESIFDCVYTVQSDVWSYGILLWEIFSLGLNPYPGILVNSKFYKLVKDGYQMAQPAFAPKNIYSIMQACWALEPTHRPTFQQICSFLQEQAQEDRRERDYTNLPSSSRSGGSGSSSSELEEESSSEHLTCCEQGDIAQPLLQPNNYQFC

[2] = molecular target: chimera 4 (human Ig1-mouse Ig2-human Ig3) sR3-AP (human; mouse, UniProt P05187 23-511); test: sR3-AP chimera binding assay on antibody-coated plates
Experimental: (§1) After 2 hr incubation, the plates are washed 5 times and bound sR3-AP is detected by chemiluminescence.
(§2) DNA sequences encoding mouse and human Ig domains 1-3 are swapped in various combinations to form the following VEGFR-3 extracellular domain constructs: i) wild-type human; ii) wild-type mouse; iii) chimera 1 (human Ig1-human Ig2-mouse Ig3); chimera 2 (human Ig1-mouse Ig2-mouse Ig3); (iv) chimera 3 (mouse Ig1-human Ig2-mouse Ig3) and (v) chimera 4 (human Ig1-mouse Ig2-human Ig3). The constructs are expressed as fusion proteins with alkaline phosphatase (AP) Persaud, et al., supra. The encoded proteins are isolated from conditioned media (CM) of transiently transfected cells and normalized to equal protein concentration and AP activity.

[3] = molecular target: chimera 2 (human Ig1-mouse Ig2-mouse Ig3) sR3-AP (human; mouse, UniProt P05187 23-511); test: as above
Experimental: as §1, §2

[4] = molecular target: T2, human sR3-AP (full-length soluble extracellular region of human VEGFR-3, Ig domains 1-7, fused to human … (human)); test: SPR, BIACORE 2000 at 20° C, sR3-AP immobilized, antibody injected at 0.8 to 6.25 nM
T2 construct: also called soluble extracellular domain of human VEGFR-3
Experimental: Sensograms are evaluated using the BIA Evaluation 3.2 program to determine the on rates (ka) and the off rates (kd). The dissociation constant (Kd) is calculated from the ka and kd rates using the equation: […].

[5] = molecular target: T2, human sR3-AP (full-length soluble …); test: competitive VEGF-C blocking assay: Fab mixed with 50 ng sR3-AP, plates coated with VEGF-CΔNΔC, OD405; Fab, not IgG
Experimental: After an additional 2 hours, the plates are washed five times and p-nitrophenyl phosphate (Sigma) is added to quantify the bound sR3-AP molecules at OD₄₀₅ₙₘ.

incorporation of [3H]-TdR (mitogenic response) [1]: ≥ 3 fold
B1: recombinant mature human VEGF-CΔNΔC (ligand)
chain: AHYNTEILKSIDNEWRKTQCMPREVCIDVGKEFGVATNTFFKPPCVSVYRCGGCCNSEGLQCMNTSTSYLSKTLFEITVPLSQGPKPVTISFANHTSCRCMSKL

binding result [2]: no binding
binding result [3]: no binding
Kd [4]: 0.056 nM
B2: Antibody 1 (IgG form) (antibody, V domains shown)
VH: QVQLQQSGPGLVKPSQTLSLTCAISGDSVSGNSATWNWIRQSPSRGLEWLGRTYYRSKWNHDYAESVKSRITINPDTSKNQFSLQLNSVTPEDTAVYYCARGDSSSWYAFDYWGQGTLVTVSS
VL: EIVLTQSPGTLSLSLGERATLSCRASQSISSSFLAWYQQKPGQAPKLLIYAASTRATGIPDRFSGSGSGTDFTLTISRLEPEDFAVYYCQQYGRSLSFGGGTKVEVKR
notes: also called human anti-VEGFR-3 mAb

IC50 [5]: 2 nM
B3: Antibody 1 (Fab form) (Fab, V domains shown)
VH: QVQLQQSGPGLVKPSQTLSLTCAISGDSVSGNSATWNWIRQSPSRGLEWLGRTYYRSKWNHDYAESVKSRITINPDTSKNQFSLQLNSVTPEDTAVYYCARGDSSSWYAFDYWGQGTLVTVSS
VL: EIVLTQSPGTLSLSLGERATLSCRASQSISSSFLAWYQQKPGQAPKLLIYAASTRATGIPDRFSGSGSGTDFTLTISRLEPEDFAVYYCQQYGRSLSFGGGTKVEVK
notes: also called Fab of Antibody 1
